The target in assay [1] is T1, human DLL4, full length, on cells (human, UniProt Q9NR61 27-685).
T1 construct: also called huDLL4 cells; human DLL4-293G
The assay is described as follows: FACS, DLL4 cells. How it is done:
(§1) Stable cell lines overexpressing cell-surface DLL4 were harvested from tissue culture flasks, washed four times and resuspended in phosphate buffered saline (PBS) containing 1% bovine serum albumin and 1 mM CaCl₂ (FACS buffer). 1.5×10⁵ cells were incubated with antibodies at various concentrations in FACS buffer for 60 minutes on ice. […] Following an incubation on ice (4° C., 60 minutes), cells were washed three times and resuspended in FACS buffer. Fluorescence was measured using a Becton Dickinson FACSCalibur-HTS (Becton Dickinson, San Jose, Calif., US). Data were analyzed using Graphpad Prism software and EC₅₀ values were reported as the concentration of antibody to achieve 50% of maximal DLL4 antibodies binding to DLL4 expressing cells. […]

Assay [2] addresses T2, mouse DLL4 on cells (mouse, UniProt Q9JI71 27-686).
T2 construct: whole, on cells; also called mouse DLL4-293G; mu DLL4 cells
The assay is described as follows: FACS, DLL4 cells. As to the method: as §1

Assay [3] concerns the target T1, human DLL4, full length, on cells. The assay is described as follows: cell-based or functional assay.
Assay [4] has as its target T3, mouse DLL4 extracellular domain (mouse, UniProt Q9JI71 27-532).
T3 construct: extracellular domain; also called muDLL4 ECD; murine DLL4
The assay is described as follows: competition ELISA: biotin-DLL4 ECD to coated huNotch-1. As to the method:
Plates were then washed 3 times with wash buffer (PBS, 0.05% Tween-20) and blocked with 200 μl/well blocking buffer (D-PBS, 1% BSA, 1 mM CaCl₂, 0.05% Tween-20) for 1 hour at 25° C. While blocking, biotin labeled DLL4 extracellular domain (14 nM) was mixed with antibody (30 pM-66 nM, 3-fold serial dilution in blocking buffer) for 1 hour at 25° C. with shaking. Assay plates were washed after blocking, and incubated with DLL4/antibody mixtures (100 μl/well, 1 hour at 25° C. with shaking). Plates were washed again and 100 μl/well streptavidin conjugated with HRP (Fitzgerald #65R-S104PHRPx, diluted 1:5,000 in blocking buffer) was added for 1 hour at 25° C. with shaking. After a final wash, plates were developed using 100 μl/well substrate (TMB Sigma #T8665), and the reaction was stopped using 100 μl/well 1N HCl, and the absorbance was read at 450 nm. Data were analyzed using Graphpad Prism software and IC₅₀ values were reported as the concentration of antibody to achieve 50% reduction of DLL4 bound to Notch1.
Further characterization determined 37D10 and 40B10 were identical rat mAbs.
Background: An ELISA detects its analyte on a solid surface through an enzyme-linked reagent.

In assay [5] the target is T1, human DLL4, full length, on cells. The assay is described as follows: competition FACS: huNotch-1-biotin to DLL4 cells. As to the method:
(§2) Notch blocking assay: Briefly, stable cell lines overexpressing cell-surface DLL4 were harvested from tissue culture flasks and re-suspended in phosphate buffered saline (PBS) containing 1% bovine serum albumin and 1 mM CaCl₂ (FACS buffer). HEK293G-DLL4 cells were dispensed into 96-well plate (v-bottom) at 1.5×10⁵ cells/well in FACS buffer. After spinning down cells and discarding the supernatant, 50 μL of purified IgG with appropriate dilution were added to each well, and incubated on ice at 4° C. for 60 minutes, followed by addition of 50 μL/well of Notch1-biotin at 0.2 μg/mL for human DLL4-293G or 2.0 μg/mL for mouse DLL4-293G (1.0 or 0.1 μg/mL final) for an additional 1 hour incubation ice at 4° C. After washing the cells two times with FACS buffer, 50 μL of R-phycoerythrin-conjugated streptavidin (1:150 dilution in FACS buffer) (Jackson ImmunoResearch, West Grove, Pa., Cat.#016-110-084) were added. Following an incubation on ice (4° C., 60 minutes), cells were washed three times and resuspended in FACS buffer. Fluorescence was measured using a Becton Dickinson FACSCalibur-HTS (Becton Dickinson, San Jose, Calif.). Data were analyzed using Graphpad Prism software, and IC₅₀ values were reported as the concentration of antibody to achieve 50% reduction of Notch1 bound to DLL4 expressing cells. […]

For assay [6], the target named is T2, mouse DLL4 on cells. The experiment in a line: competition FACS: huNotch-1-biotin to DLL4 cells. How it is done: as §2
For assay [7], the target named is T4, rat DLL4 extracellular domain (rat, UniProt D3ZHH1 28-530).
T4 construct: extracellular domain; also called ratDLL4 ECD
The assay is described as follows: SPR (Biacore). A digest of the protocol:
(§3)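 Purified anti-DLL4 antibodies (1 μg/ml) captured on immobilized goat anti-human Fc, with DLL4 ECD injected as analyte; HBS-EPB running buffer (pH 7.4), 25° C, referenced against capture-only surface. On/off rates from global 1:1 Langmuir fit; KD = Koff/Kon.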
On the technique in general: Surface plasmon resonance follows binding to a sensor surface in real time, without labels.

The target of assay [8] is T3, mouse DLL4 extracellular domain. The experiment in a line: SPR (Biacore). A digest of the protocol: as §3
Assay [9] has as its target T5, cynomolgus monkey DLL4 extracellular domain (cynomolgus monkey).
T5 construct: extracellular domain; also called cynoDLL4 ECD; Cyno DLL4
The assay is described as follows: SPR (Biacore). How it is done:
(§4) The BIACORE® surface plasmon resonance assay (Biacore, Inc., Piscataway, N.J., US) determines the affinity of antibodies with kinetic measurements of on-rate and off-rate constants. Binding of DLL4 antibodies to a purified recombinant DLL4 extracellular domain (ECD) was determined by surface plasmon resonance-based measurements with a Biacore® instrument (either a Biacore 2000, Biacore 3000, or Biacore T100; GE Healthcare, Piscataway, N.J., US) using running buffer HBS-EPB (10 mM HEPES [pH 7.4], 150 mM NaCl, 3 mM EDTA, 0.1 mg/ml BSA and 0.005% surfactant P20) at 25° C. For example, approximately 9000 RU of goat anti-human Fc specific polyclonal antibody (Thermo Fisher Scientific Inc., Rockford, Ill., US) diluted in 10 mM sodium acetate (pH 4.5) is directly immobilized across a CMS research grade biosensor chip using a standard amine coupling kit according to manufacturer's instructions and procedures at 25 μg/ml. Unreacted moieties on the biosensor surface were blocked with ethanolamine. For kinetic analysis, rate equations derived from the 1:1 Langmuir binding model were fitted simultaneously to multiple antigen injections (using global fit analysis) with the use of Scrubber 2 (BioLogic Software), Biacore Biaevaluation 4.0.1 software or Biacore T100 Evaluation software. Purified antibodies were diluted in running buffer for capture across goat anti-human Fc reaction surfaces. Antibodies to be captured as a ligand (1 μg/ml) were injected over reaction matrices at a flow rate of 10 μl/min. During the assay, all measurements were referenced against the capture surface alone (i.e., with no captured anti-DLL4 antibody). […] The equilibrium dissociation constant KD (M) of the reaction between antibodies and the target antigen was then calculated from the kinetic rate constants by the following formula: KD=Koff/Kₒₙ. Binding was recorded as a function of time and kinetic rate constants were calculated.

The target of assay [10] is T6, human DLL4 extracellular domain (human, UniProt Q9NR61 27-529).
T6 construct: purified recombinant ECD; biotin-labelled or 6xHis-tagged depending on the assay; also called huDLL4 ECD; hu DLL4 ECD
The assay is described as follows: SPR (Biacore). As to the method: as §4

Assay [11] deals with T5, cynomolgus monkey DLL4 extracellular …. The experiment in a line: binding ELISA.
The target in assay [12] is T6, human DLL4 extracellular domain. The assay is described as follows: binding ELISA.
Assay [13] concerns the target T3, mouse DLL4 extracellular domain. The experiment in a line: binding ELISA.
Assay [14] addresses T1, human DLL4, full length, on cells. The assay is described as follows: FACS, DLL4 cells. This is another data set of the same source. Background: A flow cytometer gives signals particle by particle.
For assay [15], the target named is T2, mouse DLL4 on cells. The experiment in a line: FACS, DLL4 cells. This is another data set of the same source.
The target in assay [16] is T1, human DLL4, full length, on cells. The assay is described as follows: competition FACS: huNotch-1 to DLL4 cells. As to the method: (§5) Notch blocking assay: Briefly, stable cell lines overexpressing cell-surface DLL4 were harvested from tissue culture flasks and re-suspended in phosphate buffered saline (PBS) containing 1% bovine serum albumin and 1 mM CaCl₂ (FACS buffer). HEK293G-DLL4 cells were dispensed into 96-well plate (v-bottom) at 1.5×10⁵ cells/well in FACS buffer. After spinning down cells and discarding the supernatant, 50 μL of purified IgG with appropriate dilution were added to each well, and incubated on ice at 4° C. for 60 minutes, followed by addition of 50 μL/well of Notch1-biotin at 0.2 μg/mL for human DLL4-293G or 2.0 μg/mL for mouse DLL4-293G (1.0 or 0.1 μg/mL final) for an additional 1 hour incubation ice at 4° C. After washing the cells two times with FACS buffer, 50 μL of R-phycoerythrin-conjugated streptavidin (1:150 dilution in FACS buffer) (Jackson ImmunoResearch, West Grove, Pa., Cat.#016-110-084) were added. Following an incubation on ice (4° C., 60 minutes), cells were washed three times and resuspended in FACS buffer. Fluorescence was measured using a Becton Dickinson FACSCalibur-HTS (Becton Dickinson, San Jose, Calif.). Data were analyzed using Graphpad Prism software, and IC₅₀ values were reported as the concentration of antibody to achieve 50% reduction of Notch1 bound to DLL4 expressing cells.

In assay [17] the target is T2, mouse DLL4 on cells. The assay is described as follows: competition FACS: huNotch-1 to DLL4 cells. As to the method: as §5
Assay [18] concerns the target T1, human DLL4, full length, on cells. The assay is described as follows: cell-based or functional assay. This is another data set of the same source.
For assay [19], the target named is T6, human DLL4 extracellular domain. The experiment in a line: competition ELISA vs Notch-1.
The target of assay [20] is T3, mouse DLL4 extracellular domain. The experiment in a line: competition ELISA vs Notch-1.
Assay [21] has as its target T6, human DLL4 extracellular domain. The experiment in a line: SPR (Biacore). This is another data set of the same source.
The target of assay [22] is T1, human DLL4, full length, on cells. The assay is described as follows: FACS, DLL4 cells. The source holds these as a separate data set.
Assay [23] has as its target T2, mouse DLL4 on cells. The experiment in a line: FACS, DLL4 cells. The source holds these as a separate data set.

Where two headings read alike, the source gives them in different places. A value given as a limit tells only on which side of the number the result lay.

By EC50 is commonly meant the concentration at which the effect is half-maximal. For orientation: IC50 means the midpoint of a concentration-inhibition curve. The Kd is the concentration at which binding is half-saturated. As usually defined, the koff is the first-order rate constant of dissociation. One may read the kon as the second-order rate constant of association.

T1 sequence (Q9NR61 27-685 limits assumed): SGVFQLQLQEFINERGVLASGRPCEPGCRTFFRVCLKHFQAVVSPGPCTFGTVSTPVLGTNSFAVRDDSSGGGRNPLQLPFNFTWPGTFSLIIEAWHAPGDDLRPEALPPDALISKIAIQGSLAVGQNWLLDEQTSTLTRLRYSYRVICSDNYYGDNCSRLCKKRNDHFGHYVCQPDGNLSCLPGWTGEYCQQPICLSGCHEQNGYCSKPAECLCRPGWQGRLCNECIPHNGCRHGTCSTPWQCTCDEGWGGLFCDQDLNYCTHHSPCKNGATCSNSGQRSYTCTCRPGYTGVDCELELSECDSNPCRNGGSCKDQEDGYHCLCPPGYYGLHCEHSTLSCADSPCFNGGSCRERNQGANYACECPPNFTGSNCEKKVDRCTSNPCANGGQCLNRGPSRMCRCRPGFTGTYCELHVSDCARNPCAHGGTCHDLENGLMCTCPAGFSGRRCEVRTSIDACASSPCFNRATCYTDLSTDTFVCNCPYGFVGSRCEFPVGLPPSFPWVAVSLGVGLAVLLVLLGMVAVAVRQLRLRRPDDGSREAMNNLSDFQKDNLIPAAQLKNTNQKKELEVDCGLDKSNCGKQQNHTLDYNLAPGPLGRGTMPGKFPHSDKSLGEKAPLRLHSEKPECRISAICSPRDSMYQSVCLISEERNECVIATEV
T3 sequence (Q9JI71 27-532): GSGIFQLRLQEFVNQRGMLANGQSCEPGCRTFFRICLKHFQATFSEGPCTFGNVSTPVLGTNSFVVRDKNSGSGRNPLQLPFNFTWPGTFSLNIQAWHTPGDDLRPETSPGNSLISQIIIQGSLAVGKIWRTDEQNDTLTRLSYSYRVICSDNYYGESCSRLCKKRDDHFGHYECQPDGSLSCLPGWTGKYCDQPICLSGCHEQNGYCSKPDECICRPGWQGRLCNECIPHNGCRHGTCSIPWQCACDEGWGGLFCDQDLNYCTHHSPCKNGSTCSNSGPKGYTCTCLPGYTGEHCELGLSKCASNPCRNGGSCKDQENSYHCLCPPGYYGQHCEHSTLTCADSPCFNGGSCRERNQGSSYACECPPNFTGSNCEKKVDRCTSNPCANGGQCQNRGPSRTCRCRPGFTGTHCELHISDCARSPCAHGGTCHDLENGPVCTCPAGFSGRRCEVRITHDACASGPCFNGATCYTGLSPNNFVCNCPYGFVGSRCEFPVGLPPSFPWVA
T6 sequence (Q9NR61 27-529 limits assumed): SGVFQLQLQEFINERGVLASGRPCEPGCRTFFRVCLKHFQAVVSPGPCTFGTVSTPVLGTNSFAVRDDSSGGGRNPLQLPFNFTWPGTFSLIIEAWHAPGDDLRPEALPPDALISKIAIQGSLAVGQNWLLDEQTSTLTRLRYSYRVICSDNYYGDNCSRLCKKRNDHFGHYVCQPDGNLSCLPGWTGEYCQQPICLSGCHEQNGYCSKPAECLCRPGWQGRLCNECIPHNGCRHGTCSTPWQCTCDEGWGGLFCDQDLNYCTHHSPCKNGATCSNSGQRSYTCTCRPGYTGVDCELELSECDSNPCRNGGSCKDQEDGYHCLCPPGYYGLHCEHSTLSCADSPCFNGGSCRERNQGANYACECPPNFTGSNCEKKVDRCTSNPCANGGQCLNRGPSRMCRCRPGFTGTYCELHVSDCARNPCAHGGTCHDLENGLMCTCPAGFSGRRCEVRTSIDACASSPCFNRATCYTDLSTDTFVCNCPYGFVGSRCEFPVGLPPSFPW
T2 sequence (Q9JI71 27-686): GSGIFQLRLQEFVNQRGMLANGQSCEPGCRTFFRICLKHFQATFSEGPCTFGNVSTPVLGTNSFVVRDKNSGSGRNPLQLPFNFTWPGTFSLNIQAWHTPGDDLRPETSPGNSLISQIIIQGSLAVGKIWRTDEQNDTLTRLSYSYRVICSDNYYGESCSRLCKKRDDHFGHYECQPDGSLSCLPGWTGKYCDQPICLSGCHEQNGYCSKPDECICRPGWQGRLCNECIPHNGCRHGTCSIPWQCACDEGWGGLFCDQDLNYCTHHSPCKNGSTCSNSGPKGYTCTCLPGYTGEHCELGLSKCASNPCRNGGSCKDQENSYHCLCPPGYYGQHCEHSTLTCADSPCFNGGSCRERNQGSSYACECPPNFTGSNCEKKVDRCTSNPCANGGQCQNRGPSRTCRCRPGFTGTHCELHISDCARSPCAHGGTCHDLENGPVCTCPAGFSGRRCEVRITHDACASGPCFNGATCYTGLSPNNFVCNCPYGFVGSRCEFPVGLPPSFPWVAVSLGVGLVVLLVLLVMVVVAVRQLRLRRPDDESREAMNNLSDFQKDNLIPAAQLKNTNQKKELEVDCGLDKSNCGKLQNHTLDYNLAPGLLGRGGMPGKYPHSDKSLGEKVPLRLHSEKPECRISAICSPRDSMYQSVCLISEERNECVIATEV
T4 sequence (D3ZHH1 28-530): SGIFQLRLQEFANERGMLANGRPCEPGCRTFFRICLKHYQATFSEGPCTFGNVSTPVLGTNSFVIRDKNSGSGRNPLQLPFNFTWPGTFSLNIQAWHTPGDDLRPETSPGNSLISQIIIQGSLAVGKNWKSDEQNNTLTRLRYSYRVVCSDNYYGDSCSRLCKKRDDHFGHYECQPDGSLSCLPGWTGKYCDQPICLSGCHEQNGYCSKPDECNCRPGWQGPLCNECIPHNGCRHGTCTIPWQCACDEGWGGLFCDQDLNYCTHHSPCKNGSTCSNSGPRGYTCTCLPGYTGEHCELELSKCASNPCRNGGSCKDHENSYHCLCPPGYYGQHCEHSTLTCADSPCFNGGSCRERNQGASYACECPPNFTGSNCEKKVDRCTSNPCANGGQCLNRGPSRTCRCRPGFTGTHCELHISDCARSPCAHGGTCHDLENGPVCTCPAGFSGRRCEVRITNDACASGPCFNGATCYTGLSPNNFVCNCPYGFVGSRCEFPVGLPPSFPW

B1: 14A11 rat anti-DLL4 monoclonal antibody (antibody, rat IgG2a, V domains shown)
VH: EVQLQQSGPELAKPGSSVKISCKASGYTFTNSYISWIKQTTGQGLEYVGYINTGSGGADYNEKFKGKATLTVDKSSRTAFMQLSSLTPGDSAVYYCAKSILLGSTCYFDYWGQGVLVTVSS
VL: NTVLTQSPALAVSLGQRVTISCKASRSVSSPMYSYIYWYQQKPGQQPKLLIYRASTLASGVPARFSGSGSGTDFTLNIDPVEADDIATYFCQQSWSDPFTFGSGTKLEIKR
notes: rat IgG2a/K hybridoma mAb; also called MC13-14A11.3A4
On to B1, for which the EC50 in [1] was more than 50 nM; in [2], 2.1 nM. For the same molecule, the “Notch activation Inhibition (IC50, nM), huDLL4 cell/Notch reporter cells” value in assay [3] came to 2.7 nM. The half-inhibitory concentration (IC50) in assay [4] turned out to be 19.8 nM; in [5], 205 nM; in assay [6] it was 1.6 nM. Besides, the binding result in assay [7] is on record as “no binding”. For the same molecule, the values for the dissociation constant Kd in assay [8], in assay [9] and in [10] were 1.3 nM, 11.6 nM and 10.3 nM, respectively. Moreover, the koff in assay [8] amounted to 9e-05 s⁻¹; in assay [9], 0.0012 s⁻¹; in [10], 0.0012 s⁻¹. Besides, the values for the kon in assay [8], in assay [9] and in assay [10] were 70000 M⁻¹ s⁻¹, 110000 M⁻¹ s⁻¹ and 120000 M⁻¹ s⁻¹, respectively.

B2: 1A11 chimeric antibody (antibody, human IgG1, V domains shown)
VH: EVQLVESGGGLVQPGRSMKLSCAASGFTFRNFPMAWVRQAPTRGLEWVATISSSDGTTYYRDSVKGRFTISRDNAKSTLYLQVNSLRSEDTATYYCSRGYYNSPFAYWGQGTLVTVSS
VL: DIQMTQSPASLSASLGETVTIECRASEDIYSNLAWYQQKPGNSPQLLIFDTNNLADGVPSRFSGSGSGTQSSLKINSLQSEDVASYFCQQYNNYPPTFGGGTKLELKR
notes: also called Chimera of 1A11; 1A11 (chimera)
Regarding B2, the EC50 turned out to be 0.33 nM in [11]; 0.2 nM in assay [12]; 0.3 nM in assay [13]; 6.29 nM in [14]; 0.53 nM in assay [15]; 19.6 nM in assay [22]. For the same molecule, the EC50 in assay [23] turned out to be 0.74 nM. In addition, the IC50 in assay [16] is 2.34 nM; in [17], 0.682 nM; in assay [19] it was 1.8 nM; in assay [20] it was 3.5 nM. Moreover, in [18], the “Reporter Assay (EC50, nM)” value came to 5.98 nM. Moreover, the Kd stood at 9 nM in assay [21] and 24 nM in assay [8].

The record behind these values is patent publication US20110217237A1 (AbbVie / Abbott, published 2011).
